Experimental data published in the DeepSol protein solubility set.

experiment: soluble on expression in E. coli; label from the status in PepcDB or PDB records

Sequence | soluble on expression in E. coli
AENNNLKLASTMEGRVEQLAEQRQVIEAGGGERRVEKQHSQGKQTARERLNNLLDPHSFDEVGAFRKHRTTLFGMDKAVVPADGVVTGRGTILGRPVHAASQDFTVMGGSAGETQSTKVVETMEQALLTGTPFLFFYDSGGARIQEGIDSLSGYGKMFFANVKLSGVVPQIAIIAGPCAGGASYSPALTDFIIMTKKAHMFITGPQVIKSVTGEDVTADELGGAEAHMAISGNIHFVAEDDDAAELIAKKLLSFLPQNNTEEASFVNPNNDVSPNTELRDIVPIDGKKGYDVRDVIAKIVDWGDYLEVKAGYATNLVTAFARVNGRSVGIVANQPSVMSGCLDINASDKAAEFVNFCDSFNIPLVQLVDVPGFLPGVQQEYGGIIRHGAKMLYAYSEATVPKITVVLRKAYGGSYLAMCNRDLGADAVYAWPSAEIAVMGAEGAANVIFRKEIKAADDPDAMRAEKIEEYQNAFNTPYVAAARGQVDDVIDPADTRRKIASALEMYATKRQTRPAKKHGNFPC | soluble
AEQKTLHIYNWSDYIAPDTVANFEKETGIKVVYDVFDSNEVLEGKLMAGSTGFDLVVPSASFLERQLTAGVFQPLDKSKLPEWKNLDPELLKLVAKHDPDNKFAMPYMWATTGIGYNVDKVKAVLGENAPVDSWDLILKPENLEKLKSCGVSFLDAPEEVFATVLNYLGKDPNSTKADDYTGPATDLLLKLRPNIRYFHSSQYINDLANGDICVAIGWAGDVWQASNRAKEAKNGVNVSFSIPKEGAMAFFDVFAMPADAKNKDEAYQFLNYLLRPDVVAHISDHVFYANANKAATPLVSAEVRENPGIYPPADVRAKLFTLKVQDPKIDRVRTRAWTKVKSGK | soluble
AETSSATTAQQMPSLAPMLEKVMPSVVSINVEGSTTVNTPRMPRNFQQFFGDDSPFCQEGSPFQSSPFCQGGQGGNGGGQQQKFMALGSGVIIDADKGYVVTNNHVVDNATVIKVQLSDGRKFDAKMVGKDPRSDIALIQIQNPKNLTAIKMADSDALRVGDYTVAIGNPFGLGETVTSGIVSALGRSGLNAENYENFIQTDAAINRGNSGGALVNLNGELIGINTAILAPDGGNIGIGFAIPSNMVKNLTSQMVEYGQVKRGELGIMGTELNSELAKAMKVDAQRGAFVSQVLPNSSAAKAGIKAGDVITSLNGKPISSFAALRAQVGTMPVGSKLTLGLLRDGKQVNVNLELQQSSQNQVDSSSIFNGIEGAEMSNKGKDQGVVVNNVKTGTPAAQIGLKKGDVIIGANQQAVKNIAELRKVLDSKPSVLALNIQRGDSTIYLLMQ | soluble
AGHMVSCCYRSLAAPDLTLRDLLDIVETSQAHNARAQLTGALFYSQGVFFQWLEGRPAAVAEVMTHIQRDRRHSNVEILAEEPIAKRRFAGWHMQLSCSEADMRSLGLAESRQIVTVGRSL | soluble
AGLENTDHTNNEHRLTQLLSIAEECETLDRLKQLVDSGRIFTAYNGFEPSGRIHIAQALITVMNTNNMIECGGQMIIYIADWFAKMNLKMNGDINKIRELGRYFIEVFKACGINLDGTRFIWASEFIASNPSYIERMLDIAEFSTISRVKRCCQIMGRNESDCLKASQIFYPCMQAADVFELVPEGIDICQLGIDQRKVNMLAIEYANDRGLKIPISLSHHMLMSLSGPKKKMSKSDPQGAIFMDDTEQEVSEKISRAYCTDETFDNPIFEYIKYLLLRWFGTLNLCGKIYTDIESIQEDFSSMNKRELKTDVANYINTIIDLVREHFKKPELSELLSNVKSYQQPSK | soluble
AGQCSQNEYFDSLLHACIPCQLRCSSNTPPLTCQRYCNASVTNSVKG | soluble
AGQFGTDYNAAIKVDTQTEFCGYVGTKGSSSVAAMFVEGNEVDSLSAGDKAIIVLGETPFYAESGGQCGDAGEIRTEAGVFRVEDTQKLGNAIAHHGVMAEGVLAKGDEVATIVDAERRAAISLN | not soluble
AGVFNLEGFGPVSRAMGGTGAAFDIGPAAMMENPATLGLMGEGRHFSLGLDVVSTDIKVTNTATGETASSGNHGNNNGPYFAPQTAFVYRQGRYAFGAGIFAEGGLGTQYGGSSFLSRTSNGVDTGLDQFSRLLVLRVPFSAAYHVTDKLTVGASVDAVWTSLNLGTLLDVSQIGTLAGQGRVSGTLVPTLLGVPGLSGGYIDFSRNAPVGGGVQAWGIGGRLGLTYQVTPDTRIGAAYQAKTHVGDLTGQATLSAVSSVAGNIPLKGDVTVRNFQMPAQLTVGISHQFNDQLSVSADYQRVFWSSVMKDMNVGFVQSGSAANLDLSLPQNYRDISVFGIGAEYRYNAKWTFRGGFHYAQEAIPGNMLLAVVPATPTTSLTGGVSYAIGKNDVIDFALSVALRKTLDNASQPNTAVPISVTHSQVNAVIAYQKRFHHHHHH | soluble
